The results in this text go back to PMC8752827, “Towards a generic prototyping approach for therapeutically-relevant peptides and proteins in a cell-free translation system” (Nature Communications, 2022).

pIC50: −log10 of the molar value.

The target of this assay is Trypsin. Nature of the assay: trypsin-inhibitory assay (residual enzyme activity on a fluorogenic substrate); 100 pM trypsin pre-incubated with peptide (twofold dilution series) for 3 h at room temperature in 0.1 M NaCl, 10 mM CaCl2, 0.005% Triton X-100, 0.1 M Tris-HCl pH 8.0; residual activity with 10 uM Boc-Q-A-R-7-amido-4-methyl-coumarin; IC50 from a nonlinear fit of initial velocities (Prism).
Sequence of Trypsin (P00760 24-246): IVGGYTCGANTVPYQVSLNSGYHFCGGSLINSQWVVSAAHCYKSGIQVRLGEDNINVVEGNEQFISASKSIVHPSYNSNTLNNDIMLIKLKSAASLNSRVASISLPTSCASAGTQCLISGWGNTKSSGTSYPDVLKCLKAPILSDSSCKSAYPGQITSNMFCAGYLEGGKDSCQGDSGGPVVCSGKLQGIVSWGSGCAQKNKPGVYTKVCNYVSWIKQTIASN
Regarding “chemically synthesized backbone-cyclic sunflower trypsin inhibitor (SFTI) (peptide)”, the negative logarithm of the IC50 (pIC50) is 9.77.

For the substance “cell-free synthesized linear oxidized circularly permuted SFTI (prmSFTI) (peptide)”, the negative-log IC50 (pIC50) was 9.48.

The substance “chemically synthesized linear oxidized circularly permuted SFTI (prmSFTI) (peptide)” showed a pIC50 of 9.44.
